Where “and” joins values, the source holds several entries; their conditions need not be identical. Identical values can stand only once.
Molecular target: synthetic beta1 peptide, identical in sequence to the complete cytoplasmic domain of the beta1 integrin subunit
Assay: pull-down

alpha-actinin (from UniProt P05094 1-893) (natural protein)
percent of the protein in the lysate bound: 10% and > 10%

From article PMC2120552
